{
  "source": "the supplement of paper PMC11811203",
  "parents": {"B1": {"name": "THAP1; numbered along this chain (parent)", "chain": "MVQSCSAYGCKNRYDKDKPVSFHKFPLTRPSLCKEWEAAVRRKNFKPTKYSSICSEHFTPDCFKRECNNKLLKENAVPTIFLCTEPHDKKEDLLEPQEQLPPPPLPPPVSQVDAAIGLLMPPLQTPVNLSVFCDHNYTVEDTMHQRKRIHQLEQQVEKLRKKLKTAQQRCRRQERQLEKLKEVVHFQKEKDDVSERGYVILPNDYFEIVEVPA"}},
  "data": [
    {"variants_of": "B1", "assay": "THAP1 transcriptional activity (GFP+/GFP- enrichment relative to wild-type constructs) (ratio to WT); higher = more THAP1 activity (PSMB5 reporter activation)", "settings": "with PSMB5 promoter-GFP reporter", "how_it_was_run": "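A site-saturation library of human THAP1 (residues 2–213, each changed to all 20 amino acids) was transduced by lentivirus at MOI ~0.3, in duplicate, into THAP1-knockout HEK-293T cells carrying mClover3 knocked in at endogenous PSMB5. After five days, BFP+ cells were sorted into GFP-dim and GFP-bright bins, and variants were counted by Illumina sequencing of genomic DNA amplicons. Activity is the replicate-mean bright/dim read fold change divided by the mean of wild-type synonymous constructs.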", "values": [
      {"variant": "MVQSCSAYGCKNRYDKDKPVSFHKFPLTRPSLCKEWEAAVRRKNFKPTKYSSICSEHFTPDCFKRECNNKLLKENAVPTIFLCTEPHDKKEDHLEPQEQLPPPPLPPPVSQVDAAIGLLMPPLQTPVNLSVFCDHNYTVEDTMHQRKRIHQLEQQVEKLRKKLKTAQQRCRRQERQLEKLKEVVHFQKEKDDVSERGYVILPNDYFEIVEVPA", "note": "[L93H]", "THAP1 transcriptional activity": 1.01},
      {"variant": "MVQSCSAYGCKNRYDKDKPVSFHKFPLTRPSLCKEWEAAVRRKNFKPTKYSSICSEHFTPDCFKRECNNKLLKENAVPTIFLCTEPHDKKEDILEPQEQLPPPPLPPPVSQVDAAIGLLMPPLQTPVNLSVFCDHNYTVEDTMHQRKRIHQLEQQVEKLRKKLKTAQQRCRRQERQLEKLKEVVHFQKEKDDVSERGYVILPNDYFEIVEVPA", "note": "[L93I]", "THAP1 transcriptional activity": 1.37},
      {"variant": "MVQSCSAYGCKNRYDKDKPVSFHKFPLTRPSLCKEWEAAVRRKNFKPTKYSSICSEHFTPDCFKRECNNKLLKENAVPTIFLCTEPHDKKEDKLEPQEQLPPPPLPPPVSQVDAAIGLLMPPLQTPVNLSVFCDHNYTVEDTMHQRKRIHQLEQQVEKLRKKLKTAQQRCRRQERQLEKLKEVVHFQKEKDDVSERGYVILPNDYFEIVEVPA", "note": "[L93K]", "THAP1 transcriptional activity": 0.898},
      {"variant": "MVQSCSAYGCKNRYDKDKPVSFHKFPLTRPSLCKEWEAAVRRKNFKPTKYSSICSEHFTPDCFKRECNNKLLKENAVPTIFLCTEPHDKKEDMLEPQEQLPPPPLPPPVSQVDAAIGLLMPPLQTPVNLSVFCDHNYTVEDTMHQRKRIHQLEQQVEKLRKKLKTAQQRCRRQERQLEKLKEVVHFQKEKDDVSERGYVILPNDYFEIVEVPA", "note": "[L93M]", "THAP1 transcriptional activity": 0.701},
      {"variant": "MVQSCSAYGCKNRYDKDKPVSFHKFPLTRPSLCKEWEAAVRRKNFKPTKYSSICSEHFTPDCFKRECNNKLLKENAVPTIFLCTEPHDKKEDNLEPQEQLPPPPLPPPVSQVDAAIGLLMPPLQTPVNLSVFCDHNYTVEDTMHQRKRIHQLEQQVEKLRKKLKTAQQRCRRQERQLEKLKEVVHFQKEKDDVSERGYVILPNDYFEIVEVPA", "note": "[L93N]", "THAP1 transcriptional activity": 1.51},
      {"variant": "MVQSCSAYGCKNRYDKDKPVSFHKFPLTRPSLCKEWEAAVRRKNFKPTKYSSICSEHFTPDCFKRECNNKLLKENAVPTIFLCTEPHDKKEDPLEPQEQLPPPPLPPPVSQVDAAIGLLMPPLQTPVNLSVFCDHNYTVEDTMHQRKRIHQLEQQVEKLRKKLKTAQQRCRRQERQLEKLKEVVHFQKEKDDVSERGYVILPNDYFEIVEVPA", "note": "[L93P]", "THAP1 transcriptional activity": 1.58},
      {"variant": "MVQSCSAYGCKNRYDKDKPVSFHKFPLTRPSLCKEWEAAVRRKNFKPTKYSSICSEHFTPDCFKRECNNKLLKENAVPTIFLCTEPHDKKEDQLEPQEQLPPPPLPPPVSQVDAAIGLLMPPLQTPVNLSVFCDHNYTVEDTMHQRKRIHQLEQQVEKLRKKLKTAQQRCRRQERQLEKLKEVVHFQKEKDDVSERGYVILPNDYFEIVEVPA", "note": "[L93Q]", "THAP1 transcriptional activity": 1.67},
      {"variant": "MVQSCSAYGCKNRYDKDKPVSFHKFPLTRPSLCKEWEAAVRRKNFKPTKYSSICSEHFTPDCFKRECNNKLLKENAVPTIFLCTEPHDKKEDSLEPQEQLPPPPLPPPVSQVDAAIGLLMPPLQTPVNLSVFCDHNYTVEDTMHQRKRIHQLEQQVEKLRKKLKTAQQRCRRQERQLEKLKEVVHFQKEKDDVSERGYVILPNDYFEIVEVPA", "note": "[L93S]", "THAP1 transcriptional activity": 0.575},
      {"variant": "MVQSCSAYGCKNRYDKDKPVSFHKFPLTRPSLCKEWEAAVRRKNFKPTKYSSICSEHFTPDCFKRECNNKLLKENAVPTIFLCTEPHDKKEDTLEPQEQLPPPPLPPPVSQVDAAIGLLMPPLQTPVNLSVFCDHNYTVEDTMHQRKRIHQLEQQVEKLRKKLKTAQQRCRRQERQLEKLKEVVHFQKEKDDVSERGYVILPNDYFEIVEVPA", "note": "[L93T]", "THAP1 transcriptional activity": 1.14},
      {"variant": "MVQSCSAYGCKNRYDKDKPVSFHKFPLTRPSLCKEWEAAVRRKNFKPTKYSSICSEHFTPDCFKRECNNKLLKENAVPTIFLCTEPHDKKEDVLEPQEQLPPPPLPPPVSQVDAAIGLLMPPLQTPVNLSVFCDHNYTVEDTMHQRKRIHQLEQQVEKLRKKLKTAQQRCRRQERQLEKLKEVVHFQKEKDDVSERGYVILPNDYFEIVEVPA", "note": "[L93V]", "THAP1 transcriptional activity": 1.15},
      {"variant": "MVQSCSAYGCKNRYDKDKPVSFHKFPLTRPSLCKEWEAAVRRKNFKPTKYSSICSEHFTPDCFKRECNNKLLKENAVPTIFLCTEPHDKKEDWLEPQEQLPPPPLPPPVSQVDAAIGLLMPPLQTPVNLSVFCDHNYTVEDTMHQRKRIHQLEQQVEKLRKKLKTAQQRCRRQERQLEKLKEVVHFQKEKDDVSERGYVILPNDYFEIVEVPA", "note": "[L93W]", "THAP1 transcriptional activity": 1.12},
      {"variant": "MVQSCSAYGCKNRYDKDKPVSFHKFPLTRPSLCKEWEAAVRRKNFKPTKYSSICSEHFTPDCFKRECNNKLLKENAVPTIFLCTEPHDKKEDYLEPQEQLPPPPLPPPVSQVDAAIGLLMPPLQTPVNLSVFCDHNYTVEDTMHQRKRIHQLEQQVEKLRKKLKTAQQRCRRQERQLEKLKEVVHFQKEKDDVSERGYVILPNDYFEIVEVPA", "note": "[L93Y]", "THAP1 transcriptional activity": 1.08},
      {"variant": "MVQSCSAYGCKNRYDKDKPVSFHKFPLTRPSLCKEWEAAVRRKNFKPTKYSSICSEHFTPDCFKRECNNKLLKENAVPTIFLCTEPHDKKEDLAEPQEQLPPPPLPPPVSQVDAAIGLLMPPLQTPVNLSVFCDHNYTVEDTMHQRKRIHQLEQQVEKLRKKLKTAQQRCRRQERQLEKLKEVVHFQKEKDDVSERGYVILPNDYFEIVEVPA", "note": "[L94A]", "THAP1 transcriptional activity": 1.59},
      {"variant": "MVQSCSAYGCKNRYDKDKPVSFHKFPLTRPSLCKEWEAAVRRKNFKPTKYSSICSEHFTPDCFKRECNNKLLKENAVPTIFLCTEPHDKKEDLCEPQEQLPPPPLPPPVSQVDAAIGLLMPPLQTPVNLSVFCDHNYTVEDTMHQRKRIHQLEQQVEKLRKKLKTAQQRCRRQERQLEKLKEVVHFQKEKDDVSERGYVILPNDYFEIVEVPA", "note": "[L94C]", "THAP1 transcriptional activity": 0.962}
    ]}
  ]
}
